# Assay results reported in patent publication US20180155451A1 (published 2018).
# B1: GpH7-B3 variant K326_12R/GpL16-k0 (antibody, human IgG1, kappa)
# heavy: not shown
# light: DIVMTQSPLSLPVTPGEPASISCQASESLVHSNRNTYLHWYLQKPGQSPQLLIYKVSNRFSGVPDRFSGSGSGTDFTLKISRVEAEDVGVYYCSQNTHVPPTFGQGTKVEIERTVAAPSVFIFPPSDEQLKSGTASVVCLLNNFYPREAKVQWKVDNALQSGNSQESVTEQDSKDSTYSLSSTLTLSKADYEKHKVYACEVTHQGLSSPVTKSFNRGEC
# notes: homodimerized, mutation in both H chains; also called Ho Ab
# B2: GpH7-B3 variant E333_14T/GpL16-k0 (antibody, human IgG1, kappa)
# heavy: not shown
# light: B1 light
# notes: as for B1
# B3: GpH7-B3 variant G236_14T/GpL16-k0 (antibody, human IgG1, kappa)
# heavy: not shown
# light: B1 light
# notes: as for B1
# B4: GpH7-B3 variant S267_10E/GpL16-k0 (antibody, human IgG1, kappa)
# heavy: not shown
# light: B1 light
# notes: as for B1
# B5: GpH7-B3 variant S324_02A/GpL16-k0 (antibody, human IgG1, kappa)
# heavy: not shown
# light: B1 light
# notes: as for B1
# B6: GpH7-B3 variant T335_07I/GpL16-k0 (antibody, human IgG1, kappa)
# heavy: not shown
# light: B1 light
# notes: as for B1
# B7: GpH7-B3 variant S267_02A/GpL16-k0 (antibody, human IgG1, kappa)
# heavy: not shown
# light: B1 light
# notes: as for B1
# B8: GpH7-B3 variant G236_15Y/GpL16-k0 (antibody, human IgG1, kappa)
# heavy: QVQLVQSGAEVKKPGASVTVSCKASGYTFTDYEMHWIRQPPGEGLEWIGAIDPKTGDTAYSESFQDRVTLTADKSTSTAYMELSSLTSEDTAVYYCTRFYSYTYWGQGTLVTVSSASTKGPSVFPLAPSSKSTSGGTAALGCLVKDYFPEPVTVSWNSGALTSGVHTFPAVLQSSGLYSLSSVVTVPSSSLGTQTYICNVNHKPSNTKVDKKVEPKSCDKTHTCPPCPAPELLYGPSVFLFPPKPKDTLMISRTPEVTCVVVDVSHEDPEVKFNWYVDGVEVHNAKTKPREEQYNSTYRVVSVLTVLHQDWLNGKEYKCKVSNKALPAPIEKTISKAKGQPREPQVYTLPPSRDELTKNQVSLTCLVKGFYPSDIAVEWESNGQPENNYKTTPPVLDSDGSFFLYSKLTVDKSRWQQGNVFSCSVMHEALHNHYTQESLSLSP
# light: B1 light
# notes: as for B1
# B9: GpH7-B3 variant I336_18N/GpL16-k0 (antibody, human IgG1, kappa)
# heavy: not shown
# light: B1 light
# notes: as for B1
# B10: GpH7-B3 variant T335_15Y/GpL16-k0 (antibody, human IgG1, kappa)
# heavy: not shown
# light: B1 light
# notes: as for B1
# B11: GpH7-B3 variant S239_08L/GpL16-k0 (antibody, human IgG1, kappa)
# heavy: not shown
# light: B1 light
# notes: as for B1
# B12: GpH7-B3 variant T335_19Q/GpL16-k0 (antibody, human IgG1, kappa)
# heavy: not shown
# light: B1 light
# notes: as for B1
# B13: GpH7-B3 variant G236_04F/GpL16-k0 (antibody, human IgG1, kappa)
# heavy: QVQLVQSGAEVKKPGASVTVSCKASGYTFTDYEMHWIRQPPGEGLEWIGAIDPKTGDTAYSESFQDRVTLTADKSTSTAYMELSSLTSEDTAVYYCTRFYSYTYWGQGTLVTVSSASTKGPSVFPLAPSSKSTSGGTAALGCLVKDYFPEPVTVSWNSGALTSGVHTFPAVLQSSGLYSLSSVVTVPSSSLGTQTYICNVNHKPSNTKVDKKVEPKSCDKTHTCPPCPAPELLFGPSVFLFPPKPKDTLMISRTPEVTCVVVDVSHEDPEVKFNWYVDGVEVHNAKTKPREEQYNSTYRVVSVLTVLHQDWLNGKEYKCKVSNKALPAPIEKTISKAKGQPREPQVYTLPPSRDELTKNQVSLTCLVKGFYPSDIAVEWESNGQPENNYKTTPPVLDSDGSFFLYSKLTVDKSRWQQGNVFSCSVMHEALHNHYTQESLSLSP
# light: B1 light
# notes: as for B1
# B14: GpH7-B3 variant A327_09D/GpL16-k0 (antibody, human IgG1, kappa)
# heavy: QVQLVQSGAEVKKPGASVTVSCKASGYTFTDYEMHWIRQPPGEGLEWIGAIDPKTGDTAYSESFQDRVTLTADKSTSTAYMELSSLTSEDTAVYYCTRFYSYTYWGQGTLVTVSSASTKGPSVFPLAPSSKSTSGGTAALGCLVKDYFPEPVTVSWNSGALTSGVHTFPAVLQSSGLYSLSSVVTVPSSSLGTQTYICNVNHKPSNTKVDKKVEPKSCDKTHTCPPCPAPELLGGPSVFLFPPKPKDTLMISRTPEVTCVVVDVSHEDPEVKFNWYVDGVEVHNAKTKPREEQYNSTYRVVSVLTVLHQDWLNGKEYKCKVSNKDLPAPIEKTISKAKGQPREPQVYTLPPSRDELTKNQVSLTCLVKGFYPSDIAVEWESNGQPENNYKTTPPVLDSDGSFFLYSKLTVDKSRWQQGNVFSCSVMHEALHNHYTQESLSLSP
# light: B1 light
# notes: as for B1
# B15: GpH7-B3 variant T335_10E/GpL16-k0 (antibody, human IgG1, kappa)
# heavy: not shown
# light: B1 light
# notes: as for B1
# B16: GpH7-B3 variant K326_07I/GpL16-k0 (antibody, human IgG1, kappa)
# heavy: not shown
# light: B1 light
# notes: as for B1
# B17: GpH7-B3 variant S337_07I/GpL16-k0 (antibody, human IgG1, kappa)
# heavy: not shown
# light: B1 light
# notes: as for B1
# B18: GpH7-B3 variant L234_15Y/GpL16-k0 (antibody, human IgG1, kappa)
# heavy: not shown
# light: B1 light
# notes: as for B1
# B19: GpH7-B3 variant L234_20W/GpL16-k0 (antibody, human IgG1, kappa)
# heavy: not shown
# light: B1 light
# notes: as for B1
# B20: GpH7-B3 variant T335_01G/GpL16-k0 (antibody, human IgG1, kappa)
# heavy: not shown
# light: B1 light
# notes: as for B1
# B21: GpH7-B3 variant S267_09D/GpL16-k0 (antibody, human IgG1, kappa)
# heavy: not shown
# light: B1 light
# notes: as for B1
# B22: GpH7-B3 variant K326_01G/GpL16-k0 (antibody, human IgG1, kappa)
# heavy: not shown
# light: B1 light
# notes: as for B1
# B23: GpH7-B3 variant I336_10E/GpL16-k0 (antibody, human IgG1, kappa)
# heavy: not shown
# light: B1 light
# notes: as for B1
# B24: GpH7-B3 variant I336_03V/GpL16-k0 (antibody, human IgG1, kappa)
# heavy: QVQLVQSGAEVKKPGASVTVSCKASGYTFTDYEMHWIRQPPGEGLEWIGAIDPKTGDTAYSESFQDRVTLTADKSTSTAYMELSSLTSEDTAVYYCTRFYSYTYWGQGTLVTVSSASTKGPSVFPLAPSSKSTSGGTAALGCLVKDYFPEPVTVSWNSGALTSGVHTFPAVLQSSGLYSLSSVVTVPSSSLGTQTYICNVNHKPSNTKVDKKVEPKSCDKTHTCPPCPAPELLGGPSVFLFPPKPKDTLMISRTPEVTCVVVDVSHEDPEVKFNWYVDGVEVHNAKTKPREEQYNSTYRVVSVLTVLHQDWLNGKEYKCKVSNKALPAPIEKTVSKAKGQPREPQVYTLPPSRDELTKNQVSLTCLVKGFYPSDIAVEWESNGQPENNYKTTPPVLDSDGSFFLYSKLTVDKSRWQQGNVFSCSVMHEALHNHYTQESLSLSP
# light: B1 light
# notes: as for B1
# B25: GpH7-B3 variant K334_19Q/GpL16-k0 (antibody, human IgG1, kappa)
# heavy: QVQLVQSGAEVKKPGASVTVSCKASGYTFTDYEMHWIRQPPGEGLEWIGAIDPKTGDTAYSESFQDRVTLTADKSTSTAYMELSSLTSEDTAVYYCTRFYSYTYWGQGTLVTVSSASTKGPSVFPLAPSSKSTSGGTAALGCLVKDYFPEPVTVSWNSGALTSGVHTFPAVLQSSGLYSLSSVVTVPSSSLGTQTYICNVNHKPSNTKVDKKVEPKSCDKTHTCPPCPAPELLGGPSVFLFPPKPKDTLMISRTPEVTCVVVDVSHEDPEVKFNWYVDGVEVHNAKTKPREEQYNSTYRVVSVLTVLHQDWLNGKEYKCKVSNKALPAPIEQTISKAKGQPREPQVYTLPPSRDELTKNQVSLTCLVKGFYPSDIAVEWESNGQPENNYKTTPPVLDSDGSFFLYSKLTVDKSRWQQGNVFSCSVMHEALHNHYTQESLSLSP
# light: B1 light
# notes: as for B1
# B26: GpH7-B3 variant Y296_18N/GpL16-k0 (antibody, human IgG1, kappa)
# heavy: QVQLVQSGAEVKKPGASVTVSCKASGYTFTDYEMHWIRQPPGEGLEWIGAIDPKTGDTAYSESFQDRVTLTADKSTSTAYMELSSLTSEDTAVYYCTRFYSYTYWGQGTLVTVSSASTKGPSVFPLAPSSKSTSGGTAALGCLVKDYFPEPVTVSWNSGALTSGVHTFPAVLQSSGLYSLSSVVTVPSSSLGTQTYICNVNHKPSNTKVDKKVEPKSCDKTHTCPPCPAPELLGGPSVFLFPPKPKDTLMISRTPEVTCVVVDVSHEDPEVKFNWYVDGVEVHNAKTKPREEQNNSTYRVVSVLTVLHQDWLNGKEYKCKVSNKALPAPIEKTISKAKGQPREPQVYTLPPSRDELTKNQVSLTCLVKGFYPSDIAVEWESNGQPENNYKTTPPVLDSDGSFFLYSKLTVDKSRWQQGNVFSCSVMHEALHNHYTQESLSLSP
# light: B1 light
# notes: as for B1
# B27: GpH7-B3 variant V266_07I/GpL16-k0 (antibody, human IgG1, kappa)
# heavy: not shown
# light: B1 light
# notes: as for B1
# B28: GpH7-B3 variant E333_04F/GpL16-k0 (antibody, human IgG1, kappa)
# heavy: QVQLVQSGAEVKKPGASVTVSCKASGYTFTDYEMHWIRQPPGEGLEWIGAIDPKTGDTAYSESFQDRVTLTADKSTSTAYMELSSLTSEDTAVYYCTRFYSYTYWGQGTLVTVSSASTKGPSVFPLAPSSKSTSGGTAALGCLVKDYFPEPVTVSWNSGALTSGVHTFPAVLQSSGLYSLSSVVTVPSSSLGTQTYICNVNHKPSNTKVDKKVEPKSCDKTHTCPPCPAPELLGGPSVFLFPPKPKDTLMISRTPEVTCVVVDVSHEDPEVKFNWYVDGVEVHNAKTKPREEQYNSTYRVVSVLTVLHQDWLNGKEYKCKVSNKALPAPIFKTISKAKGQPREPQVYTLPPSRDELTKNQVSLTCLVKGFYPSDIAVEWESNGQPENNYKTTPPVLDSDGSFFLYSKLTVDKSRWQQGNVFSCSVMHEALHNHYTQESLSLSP
# light: B1 light
# notes: as for B1
# B29: GpH7-B3 variant K334_13S/GpL16-k0 (antibody, human IgG1, kappa)
# heavy: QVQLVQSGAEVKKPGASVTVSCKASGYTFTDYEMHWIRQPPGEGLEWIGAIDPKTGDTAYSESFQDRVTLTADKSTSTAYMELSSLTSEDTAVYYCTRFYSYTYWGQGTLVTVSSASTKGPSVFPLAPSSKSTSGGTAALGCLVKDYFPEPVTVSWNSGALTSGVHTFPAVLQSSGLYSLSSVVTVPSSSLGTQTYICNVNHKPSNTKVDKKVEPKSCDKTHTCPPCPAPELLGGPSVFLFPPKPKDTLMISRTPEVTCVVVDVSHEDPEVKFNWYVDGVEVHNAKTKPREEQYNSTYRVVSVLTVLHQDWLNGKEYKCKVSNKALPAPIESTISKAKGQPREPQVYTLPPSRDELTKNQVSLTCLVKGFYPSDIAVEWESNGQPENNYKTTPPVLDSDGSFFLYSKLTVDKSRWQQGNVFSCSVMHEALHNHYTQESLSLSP
# light: B1 light
# notes: as for B1
# B30: GpH7-B3 variant S337_10E/GpL16-k0 (antibody, human IgG1, kappa)
# heavy: not shown
# light: B1 light
# notes: as for B1
# B31: GpH7-B3 variant E333_08L/GpL16-k0 (antibody, human IgG1, kappa)
# heavy: not shown
# light: B1 light
# notes: as for B1
# B32: GpH7-B3 variant L234_04F/GpL16-k0 (antibody, human IgG1, kappa)
# heavy: not shown
# light: B1 light
# notes: as for B1
# B33: GpH7-B3 variant S337_09D/GpL16-k0 (antibody, human IgG1, kappa)
# heavy: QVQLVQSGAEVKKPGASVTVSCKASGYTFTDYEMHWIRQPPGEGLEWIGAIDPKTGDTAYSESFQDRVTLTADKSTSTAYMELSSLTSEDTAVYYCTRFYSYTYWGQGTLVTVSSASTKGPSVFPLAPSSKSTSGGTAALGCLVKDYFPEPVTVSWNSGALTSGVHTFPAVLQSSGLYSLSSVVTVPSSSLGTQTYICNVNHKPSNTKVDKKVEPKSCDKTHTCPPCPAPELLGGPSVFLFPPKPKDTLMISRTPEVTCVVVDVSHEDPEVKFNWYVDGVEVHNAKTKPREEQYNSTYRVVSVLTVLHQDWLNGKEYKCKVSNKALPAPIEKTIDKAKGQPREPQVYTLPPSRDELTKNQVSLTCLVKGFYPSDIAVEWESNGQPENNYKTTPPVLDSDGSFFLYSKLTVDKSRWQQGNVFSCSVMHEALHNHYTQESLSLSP
# light: B1 light
# notes: as for B1
# B34: GpH7-B3 variant S239_10E/GpL16-k0 (antibody, human IgG1, kappa)
# heavy: not shown
# light: B1 light
# notes: as for B1
# B35: GpH7-B3 variant T335_16H/GpL16-k0 (antibody, human IgG1, kappa)
# heavy: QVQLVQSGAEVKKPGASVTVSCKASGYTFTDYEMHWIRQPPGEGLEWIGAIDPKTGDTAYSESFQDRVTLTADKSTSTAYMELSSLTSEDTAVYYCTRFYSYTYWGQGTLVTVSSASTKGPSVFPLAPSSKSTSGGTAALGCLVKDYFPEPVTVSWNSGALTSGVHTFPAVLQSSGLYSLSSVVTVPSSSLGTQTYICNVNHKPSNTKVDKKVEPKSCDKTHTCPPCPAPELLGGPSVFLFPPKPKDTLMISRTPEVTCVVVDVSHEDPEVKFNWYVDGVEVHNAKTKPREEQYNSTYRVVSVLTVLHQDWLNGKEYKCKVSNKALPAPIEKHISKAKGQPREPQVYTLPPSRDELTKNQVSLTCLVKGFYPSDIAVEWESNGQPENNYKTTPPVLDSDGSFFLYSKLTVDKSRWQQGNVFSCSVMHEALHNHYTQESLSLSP
# light: B1 light
# notes: as for B1
# B36: GpH7-B3 variant T335_13S/GpL16-k0 (antibody, human IgG1, kappa)
# heavy: not shown
# light: B1 light
# notes: as for B1
# B37: GpH7-B3 variant A330_19Q/GpL16-k0 (antibody, human IgG1, kappa)
# heavy: not shown
# light: B1 light
# notes: as for B1
# B38: GpH7-B3 variant E333_13S/GpL16-k0 (antibody, human IgG1, kappa)
# heavy: not shown
# light: B1 light
# notes: as for B1
# B39: GpH7-A5/GpH7-B3 variant S337_08L/GpL16-k0 (antibody, human IgG1, kappa)
# heavy 1: not shown
# heavy 2: not shown
# light: B1 light
# notes: heterodimerized, mutation in one H chain only; also called He Ab
# B40: GpH7-A5/GpH7-B3 variant H268_18N/GpL16-k0 (antibody, human IgG1, kappa)
# heavy 1: not shown
# heavy 2: not shown
# light: B1 light
# notes: as for B39
# B41: GpH7-A5/GpH7-B3 variant H268_19Q/GpL16-k0 (antibody, human IgG1, kappa)
# heavy 1: not shown
# heavy 2: not shown
# light: B1 light
# notes: as for B39
# B42: GpH7-A5/GpH7-B3 variant Y296_09D/GpL16-k0 (antibody, human IgG1, kappa)
# heavy 1: not shown
# heavy 2: not shown
# light: B1 light
# notes: as for B39
# B43: GpH7-A5/GpH7-B3 variant E333_09D/GpL16-k0 (antibody, human IgG1, kappa)
# heavy 1: not shown
# heavy 2: not shown
# light: B1 light
# notes: as for B39
# B44: GpH7-A5/GpH7-B3 variant V266_08L/GpL16-k0 (antibody, human IgG1, kappa)
# heavy 1: not shown
# heavy 2: not shown
# light: B1 light
# notes: as for B39
# B45: GpH7-A5/GpH7-B3 variant G236_07I/GpL16-k0 (antibody, human IgG1, kappa)
# heavy 1: not shown
# heavy 2: not shown
# light: B1 light
# notes: as for B39
# B46: GpH7-A5/GpH7-B3 variant T335_20W/GpL16-k0 (antibody, human IgG1, kappa)
# heavy 1: not shown
# heavy 2: not shown
# light: B1 light
# notes: as for B39
# B47: GpH7-A5/GpH7-B3 variant A330_16H/GpL16-k0 (antibody, human IgG1, kappa)
# heavy 1: not shown
# heavy 2: not shown
# light: B1 light
# notes: as for B39
# B48: GpH7-A5/GpH7-B3 variant T335_18N/GpL16-k0 (antibody, human IgG1, kappa)
# heavy 1: not shown
# heavy 2: not shown
# light: B1 light
# notes: as for B39
# B49: GpH7-A5/GpH7-B3 variant I336_08L/GpL16-k0 (antibody, human IgG1, kappa)
# heavy 1: not shown
# heavy 2: not shown
# light: B1 light
# notes: as for B39
# B50: GpH7-A5/GpH7-B3 variant K326_10E/GpL16-k0 (antibody, human IgG1, kappa)
# heavy 1: not shown
# heavy 2: not shown
# light: B1 light
# notes: as for B39
# B51: GpH7-A5/GpH7-B3 variant I336_06M/GpL16-k0 (antibody, human IgG1, kappa)
# heavy 1: not shown
# heavy 2: not shown
# light: B1 light
# notes: as for B39
# B52: GpH7-A5/GpH7-B3 variant K326_19Q/GpL16-k0 (antibody, human IgG1, kappa)
# heavy 1: not shown
# heavy 2: not shown
# light: B1 light
# notes: as for B39
# B53: GpH7-A5/GpH7-B3 variant K334_04F/GpL16-k0 (antibody, human IgG1, kappa)
# heavy 1: not shown
# heavy 2: not shown
# light: B1 light
# notes: as for B39
# B54: GpH7-A5/GpH7-B3 variant Y296_16H/GpL16-k0 (antibody, human IgG1, kappa)
# heavy 1: not shown
# heavy 2: not shown
# light: B1 light
# notes: as for B39
# B55: GpH7-A5/GpH7-B3 variant Y296_04F/GpL16-k0 (antibody, human IgG1, kappa)
# heavy 1: not shown
# heavy 2: not shown
# light: B1 light
# notes: as for B39
# B56: GpH7-A5/GpH7-B3 variant K326_06M/GpL16-k0 (antibody, human IgG1, kappa)
# heavy 1: not shown
# heavy 2: not shown
# light: B1 light
# notes: as for B39
# B57: GpH7-A5/GpH7-B3 variant G236_03V/GpL16-k0 (antibody, human IgG1, kappa)
# heavy 1: not shown
# heavy 2: not shown
# light: B1 light
# notes: as for B39
# B58: GpH7-A5/GpH7-B3 variant H268_02A/GpL16-k0 (antibody, human IgG1, kappa)
# heavy 1: not shown
# heavy 2: not shown
# light: B1 light
# notes: as for B39
# B59: GpH7-A5/GpH7-B3 variant S337_20W/GpL16-k0 (antibody, human IgG1, kappa)
# heavy 1: not shown
# heavy 2: not shown
# light: B1 light
# notes: as for B39
# Molecular target: T1, FcγRIIa H (human FcγRIIa, allotype with His at position 131), extracellular domain with C-terminal His tag (human, UniProt P12318 34-217)
# Test: SPR (Biacore), antibody captured on antigen peptide chip, FcγR as analyte; relative to HoCon Ab GpH7-B3/GpL16-k0 = 100
# T1 sequence (P12318 34-217): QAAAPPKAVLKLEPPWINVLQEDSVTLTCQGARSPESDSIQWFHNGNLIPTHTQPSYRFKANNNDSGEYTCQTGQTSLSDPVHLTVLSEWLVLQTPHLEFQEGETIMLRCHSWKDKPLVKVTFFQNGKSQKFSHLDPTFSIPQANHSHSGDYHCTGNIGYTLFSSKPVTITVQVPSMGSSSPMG
row,Ho/Con_2aH,Binder
1,98.8 control = 100,B1
2,90.4 control = 100,B2
3,94.2 control = 100,B3
4,98.5 control = 100,B4
5,102 control = 100,B5
6,105 control = 100,B6
7,120 control = 100,B7
8,80.4 control = 100,B8
9,94.3 control = 100,B9
10,102 control = 100,B10
11,87 control = 100,B11
12,103 control = 100,B12
13,63.2 control = 100,B13
14,90.1 control = 100,B14
15,105 control = 100,B15
16,78.1 control = 100,B16
17,94 control = 100,B17
18,43.8 control = 100,B18
19,55.3 control = 100,B19

row,Ho/Con_2aH,Binder
1,101 control = 100,B20
2,91.5 control = 100,B21
3,98.2 control = 100,B22
4,93.4 control = 100,B23
5,90.4 control = 100,B24
6,97.2 control = 100,B25
7,100 control = 100,B26
8,104 control = 100,B27
9,93.6 control = 100,B28
10,94.9 control = 100,B29
11,101 control = 100,B30
12,96.5 control = 100,B31
13,54.2 control = 100,B32
14,107 control = 100,B33
15,91.4 control = 100,B34
16,100 control = 100,B35
17,101 control = 100,B36
18,99.2 control = 100,B37
19,94.6 control = 100,B38

# Molecular target: T1, FcγRIIa H (human FcγRIIa, allotype with …)
# Test: SPR (Biacore), antibody captured on antigen peptide chip, FcγR as analyte; relative to HeCon Ab GpH7-A5/GpH7-B3/GpL16-k0 = 100
row,He/Con_2aH,Binder
1,100 control = 100,B39
2,112 control = 100,B40
3,102 control = 100,B41
4,104 control = 100,B42
5,103 control = 100,B43
6,104 control = 100,B44
7,115 control = 100,B45
8,105 control = 100,B46
9,101 control = 100,B47
10,103 control = 100,B48
11,106 control = 100,B49
12,102 control = 100,B50
13,106 control = 100,B51
14,101 control = 100,B52
15,106 control = 100,B53
16,104 control = 100,B54
17,100 control = 100,B55
18,103 control = 100,B56
19,119 control = 100,B57
20,114 control = 100,B58
21,102 control = 100,B59
